Data as given in the supplement of paper PMC11316812.
± gives the standard deviation of the averaged measurements.

Columns and labels:
MCF7 = experiment: percentage of EdU-negative (G0-arrested) nuclei per well, 72 h; higher = more G0 arrest; conditions: reference: sequence is the full UniProt precursor, the tested protein was the secreted form or ectodomain
hTERT-HMEC = experiment: as above; conditions: reference: sequence is the full UniProt precursor, the tested protein was the secreted form or ectodomain
[1] = protein concentration 0.0225 µM
[2] = protein concentration 0.03125 µM
[3] = protein concentration 0.3125 µM
[4] = protein concentration 0.01675 µM
[5] = protein concentration 0.1675 µM
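Also: secreted proteins added to cultured cells, EdU pulse at the end, nuclei found by Hoechst imaging, EdU status from nuclear versus surrounding ring intensity ratio, PBS as neutral control.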

Sequence | percentage of EdU-negative (MCF7; [1]) [%] | percentage of EdU-negative (MCF7; protein concentration 0.225 µM) [%] | percentage of EdU-negative (hTERT-HMEC; [1]) [%] | percentage of EdU-negative (hTERT-HMEC; protein concentration 0.225 µM) [%] | percentage of EdU-negative (MCF7; [2]) [%] | percentage of EdU-negative (MCF7; [3]) [%] | percentage of EdU-negative (hTERT-HMEC; [2]) [%] | percentage of EdU-negative (hTERT-HMEC; [3]) [%] | percentage of EdU-negative (MCF7; [4]) [%] | percentage of EdU-negative (MCF7; [5]) [%] | percentage of EdU-negative (hTERT-HMEC; [4]) [%] | percentage of EdU-negative (hTERT-HMEC; [5]) [%]
MFHQIWAALLYFYGIILNSIYQCPEHSQLTTLGVDGKEFPEVHLGQWYFIAGAAPTKEELATFDPVDNIVFNMAAGSAPMQLHLRATIRMKDGLCVPRKWIYHLTEGSTDLRTEGRPDMKTELFSSSCPGGIMLNETGQGYQRFLLYNRSPHPPEKCVEEFKSLTSCLDSKAFLLTPRNQEACELSNN | 23.57 ± 0.056 | 30.2 ± 0.5 | 4.08 ± 0.27 | 9.42 ± 0.84 |  |  |  |  |  |  |  | 
MFHSSAMVNSHRKPMFNIHRGFYCLTAILPQICICSQFSVPSSYHFTEDPGAFPVATNGERFPWQELRLPSVVIPLHYDLFVHPNLTSLDFVASEKIEVLVSNATQFIILHSKDLEITNATLQSEEDSRYMKPGKELKVLSYPAHEQIALLVPEKLTPHLKYYVAMDFQAKLGDGFEGFYKSTYRTLGGETRILAVTDFEPTQARMAFPCFDEPLFKANFSIKIRRESRHIALSNMPKVKTIELEGGLLEDHFETTVKMSTYLVAYIVCDFHSLSGFTSSGVKVSIYASPDKRNQTHYALQASLKLLDFYEKYFDIYYPLSKLDLIAIPDFAPGAMENWGLITYRETSLLFDPKTSSASDKLWVTRVIAHELAHQWFGNLVTMEWWNDIWLKEGFAKYMELIAVNATYPELQFDDYFLNVCFEVITKDSLNSSRPISKPAETPTQIQEMFDEVSYNKGACILNMLKDFLGEEKFQKGIIQYLKKFSYRNAKNDDLWSSLSNSCLESDFTSGGVCHSDPKMTSNMLAFLGENAEVKEMMTTWTLQKGIPLLVVKQDGCSLRLQQERFLQGVFQEDPEWRALQERYLWHIPLTYSTSSSNVIHRHILKSKTDTLDLPEKTSWVKFNVDSNGYYIVHYEGHGWDQLITQLNQNHTLLRPKDRVGLIHDVFQLVGAGRLTLDKALDMTYYLQHETSSPALLEGLSYLESFYHMMDRRNISDISENLKRYLLQYFKPVIDRQSWSDKGSVWDRMLRSALLKLACDLNHAPCIQKAAELFSQWMESSGKLNIPTDVLKIVYSVGAQTTAGWNYLLEQYELSMSSAEQNKILYALSTSKHQEKLLKLIELGMEGKVIKTQNLAALLHAIARRPKGQQLAWDFVRENWTHLLKKFDLGSYDIRMIISGTTAHFSSKDKLQEVKLFFESLEAQGSHLDIFQTVLETITKNIKWLEKNLPTLRTWLMVNT [Q6P179] | 25.63 ± 0.041 | 25.5 ± 0.38 | 4.8 ± 0.71 | 5.45 ± 0.3 |  |  |  |  |  |  |  | 
MFHVSFRYIFGLPPLILVLLPVASSDCDIEGKDGKQYESVLMVSIDQLLDSMKEIGSNCLNNEFNFFKRHICDANKEGMFLFRAARKLRQFLKMNSTGDFDLHLLKVSEGTTILLNCTGQVKGRKPAALGEAQPTKSLEENKSLKEQKKLNDLCFLKRLLQEIKTCWNKILMGTKEH | 27.6 ± 3.5 | 25.3 ± 1.1 | 5.22 ± 1 | 6.63 ± 0.069 | 26 ± 0.34 | 25.9 ± 0.41 | 5.03 ± 1.4 | 4.47 ± 0.49 |  |  |  | 
MFIKVMFGAGCSVLVNTSCRLVNLTAHLRQKAGLPPDATIALLAEDGNLVSLEEDLKEGASRAQTMGNSLLKERAIYVLVRIIKGEDMASTRYESLLENLDDHYPELAEELRRLSGLSSVGHNWRKRMGTRRGRHEQSPTSRPRKGPD [Q8WYQ4] |  |  |  |  | 28 ± 1.6 | 25.79 ± 0.035 | 5.45 ± 0.84 | 5.68 ± 0.37 |  |  |  | 
MFKCWSVVLVLGFIFLESEGRPTKEGGYGLKSYQPLMRLRHKQEKNQESSRVKGFMIQDGPFGSCENKYCGLGRHCVTSRETGQAECACMDLCKRHYKPVCGSDGEFYENHCEVHRAACLKKQKITIVHNEDCFFKGDKCKTTEYSKMKNMLLDLQNQKYIMQENENPNGDDISRKKLLVDQMFKYFDADSNGLVDINELTQVIKQEELGKDLFDCTLYVLLKYDDFNADKHLALEEFYRAFQVIQLSLPEDQKLSITAATVGQSAVLSCAIQGTLRPPIIWKRNNIILNNLDLEDINDFGDDGSLYITKVTTTHVGNYTCYADGYEQVYQTHIFQVNVPPVIRVYPESQAREPGVTASLRCHAEGIPKPQLGWLKNGIDITPKLSKQLTLQANGSEVHISNVRYEDTGAYTCIAKNEAGVDEDISSLFVEDSARKTLANILWREEGLGIGNMFYVFYEDGIKVIQPIECEFQRHIKPSEKLLGFQDEVCPKAEGDEVQRCVWASAVNVKDKFIYVAQPTLDRVLIVDVQSQKVVQAVSTDPVPVKLHYDKSHDQVWVLSWGTLEKTSPTLQVITLASGNVPHHTIHTQPVGKQFDRVDDFFIPTTTLIITHMRFGFILHKDEAALQKIDLETMSYIKTINLKDYKCVPQSLAYTHLGGYYFIGCKPDSTGAVSPQVMVDGVTDSVIGFNSDVTGTPYVSPDGHYLVSINDVKGLVRVQYITIRGEIQEAFDIYTNLHISDLAFQPSFTEAHQYNIYGSSSTQTDVLFVELSSGKVKMIKSLKEPLKAEEWPWNRKNRQIQDSGLFGQYLMTPSKDSLFILDGRLNKLNCEITEVEKGNTVIWVGDA [Q8N475] |  |  |  |  |  |  |  |  | 24.2 ± 4.5 | 26.4 ± 1.8 | 4.72 ± 1.2 | 6.54 ± 0.16
